Positions count from the first letter of the chain named. Numbers in names are those of the source. Like-named read-outs stand apart in the source and are kept apart here.

We go through 3 molecules from patent US20180155451A1 (published 2018).

Holding throughout (experiment): SPR (Biacore), antibody captured on chip, FcgR extracellular domain as analyte
In experiment [1] the target is T1, FcgRIa (human, UniProt P12314 16-292).
T1 construct: extracellular domain; Expressed in FreeStyle293 cells and purified; used as analyte in Biacore; also called FcγRIa; FcγRI; not shown: His tag attached to the C terminus
T1 sequence (P12314 16-292): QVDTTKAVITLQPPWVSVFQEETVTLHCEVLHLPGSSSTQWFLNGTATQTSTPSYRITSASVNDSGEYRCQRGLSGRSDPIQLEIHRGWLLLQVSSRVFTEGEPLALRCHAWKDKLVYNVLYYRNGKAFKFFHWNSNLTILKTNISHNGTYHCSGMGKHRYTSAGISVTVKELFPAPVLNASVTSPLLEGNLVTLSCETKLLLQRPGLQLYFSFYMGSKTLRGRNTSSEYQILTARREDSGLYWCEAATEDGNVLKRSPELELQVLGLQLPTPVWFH
The method, then:
(§1) Specifically, H240-Kn120 (SEQ ID NO: 99) resulting from introduction of S239M into H240-Kn067 and H240-Kn126 (SEQ ID NO: 100) resulting from introduction of Y235Q into H240-Kn120 were prepared according to the method described in Reference Example 1. […] Those described above were assayed for the binding to each FcgR according to the method described in Reference Example 8.
(§2) Analysis of interaction between obj ective antibody and the FcγR was carried out using Biacore T100 (GE Healthcare), Biacore T200, Biacore A100, and Biacore 4000. HBS-EP+ (GE Healthcare) was used as the running buffer, and the measurement temperature was set to 25° C. Chips produced by immobilizing the antigen peptide by the amine coupling method to a Series S sensor Chip CM5 (GE Healthcare), chips produced by allowing preliminarily biotinylated antigen peptides to interact with and immobilize onto a Series S Sensor Chip SA (certified) (GE Healthcare), chips produced by immobilizing Protein L (ACTIGEN, BioVision) to Series S Sencor Chip CM5 (GE Healthcare), or chips produced by immobilizing Protein A/G (Thermo Scientific) to Series S Sencor Chip CM5 (GE Healthcare) were used. Antibodies of interest were captured onto these chips, and allowed to interact to each FcγR diluted with running buffer. To regenerate and repeatedly use the chip, the antibodies captured onto the chip were washed off by reacting 10 mM glycine-HCl, pH 1.5.

The target in experiment [2] is T2, FcgRIIIa V (human, UniProt P08637 17-208).
T2 construct: extracellular domain; also called FcγRIIIa V; not shown: His tag attached to the C terminus
T2 sequence (P08637 17-208 F176V limits assumed): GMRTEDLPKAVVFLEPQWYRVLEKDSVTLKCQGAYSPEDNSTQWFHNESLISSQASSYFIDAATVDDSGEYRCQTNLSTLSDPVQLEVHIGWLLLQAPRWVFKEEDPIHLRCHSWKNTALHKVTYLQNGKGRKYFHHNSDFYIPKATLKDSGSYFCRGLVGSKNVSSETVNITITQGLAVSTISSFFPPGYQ
The method, then: as §1, §2

The target of experiment [3] is T3, FcgRIIa H (human, UniProt P12318 34-217).
T3 construct: extracellular domain; also called FcγRIIa H; FcγRIIa type H; not shown: His tag attached to the C terminus
T3 sequence (looked up): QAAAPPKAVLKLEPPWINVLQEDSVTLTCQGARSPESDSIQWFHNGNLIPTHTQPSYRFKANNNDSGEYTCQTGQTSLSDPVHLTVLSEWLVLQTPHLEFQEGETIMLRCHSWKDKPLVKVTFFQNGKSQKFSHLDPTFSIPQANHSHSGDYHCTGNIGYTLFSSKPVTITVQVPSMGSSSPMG
The method, then:
as §1, §2

For experiment [4], the target named is T4, FcgRIIb (human, UniProt P31994 43-217).
T4 construct: extracellular domain; Expressed in FreeStyle293 cells and purified; used as analyte in Biacore; also called FcγRIIb; CD32B; not shown: His tag attached to the C terminus
T4 sequence (looked up): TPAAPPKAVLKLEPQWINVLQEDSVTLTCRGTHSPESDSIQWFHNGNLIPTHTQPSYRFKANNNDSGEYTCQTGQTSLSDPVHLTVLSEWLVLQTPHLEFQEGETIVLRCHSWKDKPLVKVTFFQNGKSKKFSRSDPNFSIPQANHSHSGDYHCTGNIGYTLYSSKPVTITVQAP
The method, then:
as §1, §2

The target of experiment [5] is T5, FcgRIIa R (human, UniProt P12318 34-217).
T5 construct: extracellular domain; also called FcγRIIa R; FcγRIIa type R; not shown: His tag attached to the C terminus
T5 sequence (looked up): T3 sequence (looked up) with H134R
The method, then:
as §1, §2

The target of experiment [6] is T6, FcgRIIIa F (human, UniProt P08637 17-208).
T6 construct: extracellular domain; also called FcγRIIIa F; not shown: His tag attached to the C terminus
T6 sequence (P08637 17-208): as the sequence (P08637 17-208 F176V limits assumed) above, with V160F counted along it
The method, then: as §1, §2

Experiment [7] addresses T1, FcgRIa. This is another data set of the same source.
In experiment [8] the target is T2, FcgRIIIa V. This is another data set of the same source.
In experiment [9] the target is T3, FcgRIIa H. The source holds these as a separate data set.
Experiment [10] has as its target T4, FcgRIIb. The source holds these as a separate data set.
For experiment [11], the target named is T5, FcgRIIa R. This is another data set of the same source.
Experiment [12] addresses T6, FcgRIIIa F. This is another data set of the same source.
Experiment [13] concerns the target T1, FcgRIa. The method, then: (§3) H240-Kn113 (SEQ ID NO: 92) resulting from introduction of Y234E and Y235N into H240-Kn072, H240-Kn115 (SEQ ID NO: 93) resulting from introduction of S239M into H240-Kn072, and H240-Kn125 (SEQ ID NO: 94) resulting from introduction of Y235Q and S239M into H240-Kn072 were prepared according to the method described in Reference Example 1.
as §2
This is another data set of the same source.

Experiment [14] deals with T2, FcgRIIIa V. The method, then: as §3, §2
This is another data set of the same source.

The target of experiment [15] is T3, FcgRIIa H. The method, then:
as §3, §2
The source holds these as a separate data set.

The target in experiment [16] is T4, FcgRIIb. The method, then: as §3, §2
The source holds these as a separate data set.

Experiment [17] addresses T5, FcgRIIa R. The method, then: as §3, §2
The source holds these as a separate data set.

The target of experiment [18] is T6, FcgRIIIa F. The method, then:
as §3, §2
This is another data set of the same source.

B1: H240-Kn033/H240-Hl033/L73-k0 (antibody, human IgG1, kappa)
heavy 1: not shown
heavy 2: not shown
light: DIQMTQSPSSLSASVGDRVTITCRASQDIHKYIAWYQQKPGQAPRLLIQYTSTLQPGVPSRFSGSGSGTDYTFTISSLQPEDIATYYCLQYEQLRTFGGGTKVEIKRTVAAPSVFIFPPSDEQLKSGTASVVCLLNNFYPREAKVQWKVDNALQSGNSQESVTEQDSKDSTYSLSSTLTLSKADYEKHKVYACEVTHQGLSSPVTKSFNRGEC
notes: Anti-epiregulin (EREG) IgG1 control with knobs-into-holes alterations only (Y349C/T366W in the knob chain; D356C/T366S/L368A/Y407V in the hole chain); also called H240-Kn033/H240-HI033/L73-k0
By Kd is commonly meant the concentration at which binding is half-saturated. The low end stands for higher affinity, the high end for lower affinity. In the case of B1, the Kd with FcgRIa [1] is 0.25 nM; with FcgRIIIa V [2] it was 390 nM; with FcgRIIa H [3] it was 930 nM; in the experiment with FcgRIIb [4], 4200 nM; with FcgRIIa R [5] it was 1000 nM; with FcgRIIIa F [6] it was 2600 nM. The Kd in the experiment with FcgRIa [7] is 0.25 nM; with FcgRIIIa V [8], 390 nM; with FcgRIIa H [9], 930 nM; with FcgRIIb [10], 4200 nM; with FcgRIIa R [11], 1000 nM; with FcgRIIIa F [12], 2600 nM. In addition, the Kd with FcgRIa [13] amounted to 0.25 nM; with FcgRIIIa V [14], 390 nM; in the experiment with FcgRIIa H [15], 930 nM; with FcgRIIb [16], 4200 nM; with FcgRIIa R [17], 1000 nM; with FcgRIIIa F [18] it was 2600 nM.

B2: H240-Kn032/H240-Hl032/L73-k0 (antibody, human IgG1, kappa)
heavy 1: QDQLVQSGAEVKKPGASVKVSCKASGFNIKDTYIQWVRQAPGQGLEWMGRIDPLRKQTKYREKFEGRVTITADTSTNTAYMELSSLRSEDTAVYYCVRSGREFDYWGQGTLVTVSSASTKGPSVFPLAPSSKSTSGGTAALGCLVKDYFPEPVTVSWNSGALTSGVHTFPAVLQSSGLYSLSSVVTVPSSSLGTQTYICNVNHKPSNTKVDKKVEPKSCDKTHTCPPCPAPELLGGPDVFLFPPKPKDTLMISRTPEVTCVVVDVSHEDPEVKFNWYVDGVEVHNAKTKPREEQYNSTYRVVSVLTVLHQDWLNGKEYKCKVSNKALPLPEEKTISKAKGQPREPQVCTLPPSRDELTKNQVSLWCLVKGFYPSDIAVEWESNGQPENNYKTTPPVLDSDGSFFLYSKLTVDKSRWQQGNVFSCSVMHEALHNHYTQKSLSLSP
heavy 2: B2 heavy 1 with C348Y, D355C, W365S, L367A, Y406V
light: B1 light
notes: Anti-EREG IgG1 called homodimerized: S239D/A330L/I332E in both H chains, on the knobs-into-holes pair Kn033/Hl033
For the molecule B2, the Kd came to 0.073 nM in the experiment with FcgRIa [1]; 3.1 nM in the experiment with FcgRIIIa V [2]; 690 nM with FcgRIIa H [3]; 630 nM in the experiment with FcgRIIb [4]; 340 nM in the experiment with FcgRIIa R [5]; 9.1 nM in the experiment with FcgRIIIa F [6]. The Kd with FcgRIa [7] worked out at 0.073 nM; with FcgRIIIa V [8] it was 3.1 nM; with FcgRIIa H [9], 690 nM; with FcgRIIb [10], 630 nM; in the experiment with FcgRIIa R [11], 340 nM; in the experiment with FcgRIIIa F [12] it was 9.1 nM. The Kd with FcgRIa [13] came out at 0.073 nM; in the experiment with FcgRIIIa V [14], 3.1 nM; with FcgRIIa H [15], 690 nM; in the experiment with FcgRIIb [16] it was 630 nM; in the experiment with FcgRIIa R [17], 340 nM; with FcgRIIIa F [18], 9.1 nM.

B3: H240-Kn072/H240-Hl076/L73-k0 (antibody, human IgG1, kappa)
heavy 1: B2 heavy 1 with L233Y, L234Y, G235W, D238S, H267D, D269E, S297A, L329A, E331I
heavy 2: QDQLVQSGAEVKKPGASVKVSCKASGFNIKDTYIQWVRQAPGQGLEWMGRIDPLRKQTKYREKFEGRVTITADTSTNTAYMELSSLRSEDTAVYYCVRSGREFDYWGQGTLVTVSSASTKGPSVFPLAPSSKSTSGGTAALGCLVKDYFPEPVTVSWNSGALTSGVHTFPAVLQSSGLYSLSSVVTVPSSSLGTQTYICNVNHKPSNTKVDKKVEPKSCDKTHTCPPCPAPELLGGPSVFLFPPKPKDTLMISRTPEVTCVVVDVSHEEPEVKFNWYVDGVEVHNAKTKPREEQYNSTYRVVSVLTVLHQDWLNGKEYKCKVSNDALPMPIEETISKAKGQPREPQVYTLPPSRCELTKNQVSLSCAVKGFYPSDIAVEWESNGQPENNYKTTPPVLDSDGSFFLVSKLTVDKSRWQQGNVFSCSVMHEALHNHYTQKSLSLSP
light: B1 light
notes: Heterodimerized anti-EREG IgG1: D270E introduced into both H chains of H240-Kn061/H240-Hl071/L73-k0
Turning to B3, the equilibrium dissociation constant (Kd) was 0.1 nM with FcgRIa [7]; 1 nM with FcgRIIIa V [8]; 130 nM with FcgRIIa H [9]; 5700 nM in the experiment with FcgRIIb [10]; 710 nM with FcgRIIa R [11]; 2.6 nM with FcgRIIIa F [12]. For the same molecule, the dissociation constant (Kd) in the experiment with FcgRIa [13] turned out to be 0.1 nM; in the experiment with FcgRIIIa V [14], 1 nM; in the experiment with FcgRIIa H [15] it was 130 nM; with FcgRIIb [16], 5700 nM; with FcgRIIa R [17], 710 nM; with FcgRIIIa F [18], 2.6 nM.
